Laboratory results as given in article PMC3057930 (Proteins, 2010).
Marks after values point to notes of the source that are not given here.

Columns and labels:
[1] = target: T1, CaM1-148 (Paramecium tetraurelia, UniProt P07463); assay: Population distribution of calcium ligation species
[2] = target: CaN; settings: cited from earlier work
[3] = system: CaN; settings: CaM binding to CaNA; ref [9],[10]; cited from earlier work
[4] = system: CaM C-domain vs N-domain; settings: ref [15]; cited from earlier work
[5] = system: 15N-(Ca^2+)4-CaM1-148; assay: 15N T2 relaxation by NMR; format: physicochemical, Paramecium; settings: 500 μM 15N-CaM1-148, 10-20% molar excess of peptide; 5 mM CaCl2, 50 mM HEPES, pH 7.4; 22 °C; 800 MHz; excluding mobile termini
[6] = target: (Ca^2+)4-CaM1-148 (Paramecium tetraurelia, UniProt P07463); settings: Ca2+-CaM1-148 bound to melittin; 10 mM CaCl2; ref Sorensen et al [42]; cited from earlier work
[7] = target: T1, CaM1-148; assay: CaM titration of Fl-βCaNp, fluorescence anisotropy, CaM1-148; format: binding; settings: CaM1-148, Ca2+-saturated (limiting value), 10 mM CaCl2, 100 nM Fl-βCaNp, stoichiometric titration, upper limit, pH 7.4, 22 °C

Calmodulin [CaM]
Ca2+ concentration of maximal population of intermediate (0011) ([1]; CaM alone, simulation): 2 µM | maximal population of intermediate (0011) ([1]; CaM alone, simulation): 70% | dissociation constant of (Ca2+)4-CaM from CaN (range in words) ([2]; ref [35]): low nM range | Kd of full-length CaM from CaN (range in words) ([2]; ref [36]): pM range | increase of phosphatase activity of CaN [3]: 10 fold

CaM1-148: full-length Paramecium CaM, residues 1-148
calcium affinity of C-domain relative to N-domain [4]: ~ 25 fold | cooperativity term kIII–IV ([1]; CaM1-148, absence of βCaNp): 54.39 M⁻¹ | cooperativity term kI–II ([1]; CaM1-148, absence of βCaNp): 1.73 M⁻¹

Mammalian CaM [mCaM]
calcium affinity of C-domain relative to N-domain [4]: about 10 fold

Melittin: another peptide that forms a 1:1 complex with CaM (GIGAVLKVLTTGLPALISWIKRKRQQG)
Average T2 [5]: 0.050 ± 0.006 s | Stokes Radius [6]: 22.94 ± 0.32 ^f Å

CC[C@H](C)[C@H](NC(=O)[C@H](C)NC(=O)[C@H](CCCNC(=N)N)NC(=O)[C@@H](NC(=O)[C@H](CCCCN)NC(=O)[C@H](CC(N)=O)NC(=O)[C@H](CCCNC(=N)N)NC(=O)[C@@H](NC(=O)[C@@H](NC(=O)[C@H](CCC(=O)O)NC(=O)[C@H](CCCCN)NC(=O)[C@H](CCCNC(=N)N)NC(=O)[C@H](C)N)[C@@H](C)CC)[C@@H](C)CC)[C@@H](C)CC)C(=O)NCC(=O)N[C@@H](CCCCN)C(=O)N[C@@H](CCSC)C(=O)N[C@@H](C)C(=O)N[C@@H](CCCNC(=N)N)C(=O)N[C@H](C(=O)N[C@@H](Cc1ccccc1)C(=O)N[C@@H](CO)C(=O)N[C@H](C(=O)N[C@@H](CC(C)C)C(=O)N[C@@H](CCCNC(=N)N)C(=O)O)C(C)C)C(C)C [βCaNp]
Kd [7]: ≤ 1 nM | cooperativity term kI–II ([1]; CaM1-148, presence of βCaNp): 19.90 M⁻¹
